Target: C-terminally TAMRA-conjugated and N-terminally myristoylated preS1 peptide, amino acids 2-48 of the preS1 region (preS1 probe)
Assay: preS1 binding assay (fluorescent preS1 probe attachment to cells, fluorescence imaging)
Conditions: Huh7 cells transiently expressing wild-type or mutant NTCP; parent: est. 1.0; read off a plot

Substance | ratio to parent (fold vs control)
wild-type NTCP transiently expressed in Huh7 cells (from UniProt Q14973) R84A; N87A | 0.46
wild-type NTCP transiently expressed in Huh7 cells (from UniProt Q14973) R143A; D147A | 1.1
